Like-named read-outs stand apart in the source and are kept apart here.
Assays:
[1] = tested on: Staphylococcus epidermidis strains; type: cell-based
[2] = tested on: Antibiotic-Resistant Staphylococcus aureus; experiment: MIC of PlySs2 against antibiotic-resistant S. aureus; type: cell-based; parameters: unit not given here
[3] = tested on: MRSA strains CFS 553 (ATCC 43300) and CFS 992 (JMI 5381); experiment: MIC of PlySs2 against additional MRSA strains; type: cell-based, S. aureus
Acinetobacter baumannii = Acinetobacter baumannii (8)
staphylococci = experiment: PlySs2 stability at 37° C. in Lactated Ringer's solution, residual lytic activity; type: physicochemical; details: 1X MIC
Experimental: To determine the stability of PlySs2 in a simulated catheter setting, PlySs2 was incubated at various concentrations in Lactated Ringer's solution at 37° C. After 7 days, the lytic activity of PlySs2 was assessed by adding 1×10^5 staphylococci, incubating for 4 hours, then treating with proteinase K to remove residual PlySs2, and serial dilution and plating for viability. The resulting CFU value for each condition was divided by 1×10^5 to determine the % Loss of Activity.

Bacillus cereus = Bacillus cereus (10)
Streptococcus mutans = experiment: MIC of PlySs2, susceptible and non-susceptible bacterial strains; type: cell-based; details: Streptococcus mutans (12)
Enterococcus faecalis = Enterococcus faecalis (17)
[4] = tested on: MRSA biofilms grown on catheters (strain ATCC BAA-42); experiment: Catheter biofilm residual CFU, BacTiter-Glo luciferase estimate
Lactobacillus spp. = details: N 6
Staphylcoccus aureus = experiment: MIC of PlySs2, susceptible and non-susceptible bacterial strains; type: cell-based
[5] = tested on: Staphylococcus epidermidis; experiment: as above; type: cell-based; details: Staphylococcus epidermidis (11)
Listeria monocytogenes = experiment: as above; type: cell-based; details: Listeria monocytogenes (12)
Lactococcus spp. = details: N 3
[6] = tested on: biofilms of MRSA strain CFS 218 (MRSA strain ATCC BAA-42); experiment: Scanning electron microscopy of treated catheter biofilms; type: cell-based, S. aureus; details: 1×MIC (32 ug/ml)
From the text: Biofilms were generated on catheter tubing (PVC with DEHP as plasticizer) as above and evaluated for PlySs2 sensitivity by scanning electron microscopy (SEM). […] After fixation on the catheter surface, samples were further processed and analyzed by scanning electron microscopy at 5000× magnification (FIGS. 21A-21C). Treatment with buffer alone (ie, Lactated Ringer's Solution alone) is included as a control.

[7] = tested on: Streptococcus pyogenes, Group A; experiment: MIC of PlySs2, susceptible and non-susceptible bacterial strains; type: cell-based; details: Group A (54)
[8] = tested on: MRSA strains CFS 553 (ATCC 43300) and CFS 992 (JMI 5381) biofilms; experiment: Catheter biofilm titration of additional MRSA strains, methylene blue staining; type: cell-based, S. aureus; details: 4 hours
[9] = tested on: MRSA biofilms grown on catheters (strain ATCC BAA-42); experiment: Catheter biofilm eradication in vitro, methylene blue staining
[10] = tested on: S. epidermidis (strain CFS 313 NRS34) biofilm; experiment: S. epidermidis catheter biofilm titration, methylene blue staining; type: cell-based; details: MIC 8 ug/ml
Experimental: S. epidermidis biofilms in catheters were treated with PlySs2 and evaluated using methods similarly as described above for the S. aureus studies.
The results of S. epidermidis (strain CFS 313 NRS34, which is a vancomycin intermediate sensitive S. epidermidis (VISE) strain) biofilm studies on catheters treated with PlySs2 at 10×MIC and below are shown in FIG. 17. S. epidermidis biofilm is destroyed at PlySs2 concentrations down to 0.1×MIC. The MIC here is 8 ug/ml.

[11] = tested on: methicillin resistant S. aureus MRSA strain ATCC BAA-42; experiment: MIC by broth microdilution (CLSI M07-A9) against strain ATCC BAA-42; type: cell-based
[12] = tested on: Staphylococcus lugdiensis; experiment: MIC of PlySs2, susceptible and non-susceptible bacterial strains; type: cell-based; details: Staphylococcus lugdiensis (10)

B1: PlySs2: bacteriophage lysin derived from Streptococcus suis, amino acid sequence of FIG. 5 / SEQ ID NO: 1; CHAP and SH3 domains (protein, listed as Streptococcus suis)
chain: MTTVNEALNNVRAQVGSGVSVGNGECYALASWYERMISPDATVGLGAGVGWVSGAIGDTISAKNIGSSYNWQANGWTVSTSGPFKAGQIVTLGATPGNPYGHVVIVEAVDGDRLTILEQNYGGKRYPVRNYYSAASYRQQVVHYITPPGTVAQSAPNLAGSRSYRETGTMTVTVDALNVRRAPNTSGEIVAVYKRGESFDYDTVIIDVNGYVWVSYIGGSGKRNYVATGATKDGKRFGNAWGTFK
MIC ([1]; CFS 224, HER 1292): 512 µg/mL
MIC ([1]; CFS 225, HPH-6): 128 µg/mL
MIC ([1]; CFS 226, HPH-5): 512 µg/mL
MIC ([1]; CFS 227, HCN-4): >512 µg/mL
MIC ([1]; CFS 272, NRS53 (VISE)): 128 µg/mL
MIC ([1]; CFS 280, NRS101 (MRSE)): 128 µg/mL
MIC ([1]; CFS 300, NRS8, (VISE)): 32 µg/mL
MIC ([1]; CFS 313, NRS34 (VISE)): 8 µg/mL
MIC ([1]; CFS 533, NRS6, (VISE), bloodstream USA): >512 µg/mL
MIC ([1]; CFS 769, NRS101): 64 µg/mL
MIC 50% ([2]; Daptomycin-resistant (8)): 2
MIC 90% ([2]; Daptomycin-resistant (8)): 4
MIC Range ([2]; Daptomycin-resistant (8)): 2-4
MIC 50% ([2]; Linezolid-resistant (5)): 2
MIC 90% ([2]; Linezolid-resistant (5)): 2
MIC Range ([2]; Linezolid-resistant (5)): 2-4
MIC 50% ([2]; Vancomycin-intermediate (31)): 8
MIC 90% ([2]; Vancomycin-intermediate (31)): 32
MIC Range ([2]; Vancomycin-intermediate (31)): 1-64
MIC 50% ([2]; Vancomycin-resistant (14)): 2
MIC 90% ([2]; Vancomycin-resistant (14)): 4
MIC Range ([2]; Vancomycin-resistant (14)): 1-4
1×MIC ([3]; strain ATCC 4330): 16 µg/mL
1×MIC ([3]; strain JMI 5381): 32 µg/mL
MIC 50% (Acinetobacter baumannii): >512 µg/mL
MIC 90% (Acinetobacter baumannii): >512 µg/mL
MIC Range (Acinetobacter baumannii): >512 µg/mL
% LOSS OF ACTIVITY (7 days) (staphylococci): 58.3%
MIC 50% (Bacillus cereus): >512 µg/mL
MIC 90% (Bacillus cereus): >512 µg/mL
MIC Range (Bacillus cereus): >512 µg/mL
MIC 50% (Streptococcus mutans): 64 µg/mL
MIC 90% (Streptococcus mutans): 256 µg/mL
MIC Range (Streptococcus mutans): 2 to 256 µg/mL
MIC 50% (Enterococcus faecalis): >512 µg/mL
MIC 90% (Enterococcus faecalis): >512 µg/mL
CFUs remaining in catheter biofilm ([4]; 1×MIC, 24 hours, 100 CFU/ml is the limit of detection): 100 CFU/ml
lowest concentration active at removing biofilm bacteria ([4]; titration, CFU): 0.01 ×MIC
CF-301 MIC (Lactobacillus spp.): >512 µg/mL
MIC 50% (Staphylcoccus aureus; Methicillin resistant (120)): 4 µg/mL
MIC 90% (Staphylcoccus aureus; Methicillin resistant (120)): 8 µg/mL
MIC Range (Staphylcoccus aureus; Methicillin resistant (120)): 1 to 16 µg/mL
MIC 50% (Staphylcoccus aureus; Methicillin susceptible (103)): 4 µg/mL
MIC 90% (Staphylcoccus aureus; Methicillin susceptible (103)): 8 µg/mL
MIC Range (Staphylcoccus aureus; Methicillin susceptible (103)): 1 to 16 µg/mL
MIC 50% [5]: 128 µg/mL
MIC 90% [5]: 512 µg/mL
MIC Range [5]: 4 to 512 µg/mL
MIC 50% (Listeria monocytogenes): 128 µg/mL
MIC 90% (Listeria monocytogenes): 512 µg/mL
MIC Range (Listeria monocytogenes): 1 to 512 µg/mL
CF-301 MIC (Lactococcus spp.): >512 µg/mL
biofilm on catheter surface by SEM ([6]; 30 seconds): rapidly diminishes
biofilm on catheter surface by SEM ([6]; 15 minutes): almost completely removes
MIC 50% [7]: 2 µg/mL
MIC 90% [7]: 8 µg/mL
MIC Range [7]: 0.5 to 8 µg/mL
catheter biofilm eradication ([8]; CFS 553 (ATCC 43300), 0.01×MIC): significantly reduced
catheter biofilm eradication ([8]; CFS 553 (ATCC 43300), 10×MIC, 1×MIC, and 0.1×MIC): eradicated and fully dispersed
catheter biofilm eradication ([8]; CFS 992 (JMI 5381), 0.01×MIC): significantly reduced
catheter biofilm eradication ([8]; CFS 992 (JMI 5381), 10×MIC, 1×MIC, and 0.1×MIC): eradicated and fully dispersed
time of full removal of stainable biofilm ([9]; 1×MIC (32 ug/mL)): ≤ 60 min
biofilm clearance from the catheter ([9]; 1×MIC, 24 hours): completely cleared
lowest concentration at which biofilm is destroyed [10]: 0.1 ×MIC
MIC value ([11]; ATCC BAA-42, in the absence of reducing agent): 32 µg/mL
Minimally inhibitory concentration (MIC) ([11]; ATCC BAA-42, in the presence of reducing agent (such as DTT or BMS)): 16 µg/mL
MIC 50% [12]: 8 µg/mL
MIC 90% [12]: 8 µg/mL
MIC Range [12]: 8 µg/mL
